From paper PMC3722578 (FEBS Open Bio, 2013)

Biological target: the molecule itself
Assay: SEC

B1: PKD1 domain from Vibrio cholerae metalloprotease PrtV (residues Glu755-Asn839) (domain or fragment)
chain: GAMENIAPVARFELKVEGLSVMSQNTSSDSDGNIVSYLWDFGNGQTSTEAAPTWSYTKAGSYSVTLTVTDDKGDSDTHQQTIKVDTPN
With B1 the “stoichiometry N” value was 2.
